Values belong to the substance of their own block, whether it stands above or below them.
What was measured:
[1] = target: T1, rhxf2_human RHOXF2 (UniProt Q9BQY4)
T1 sequence: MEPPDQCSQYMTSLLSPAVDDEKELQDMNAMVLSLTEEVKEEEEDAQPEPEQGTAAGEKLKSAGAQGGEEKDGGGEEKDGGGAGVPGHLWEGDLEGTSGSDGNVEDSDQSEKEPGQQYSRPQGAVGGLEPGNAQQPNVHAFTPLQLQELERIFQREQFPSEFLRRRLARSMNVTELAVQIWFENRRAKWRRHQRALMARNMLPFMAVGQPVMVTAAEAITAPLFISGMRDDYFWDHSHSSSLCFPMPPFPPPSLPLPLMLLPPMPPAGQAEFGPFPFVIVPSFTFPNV

[2] = target: T2, odam_human ODAM (UniProt A1E959)
T2 sequence: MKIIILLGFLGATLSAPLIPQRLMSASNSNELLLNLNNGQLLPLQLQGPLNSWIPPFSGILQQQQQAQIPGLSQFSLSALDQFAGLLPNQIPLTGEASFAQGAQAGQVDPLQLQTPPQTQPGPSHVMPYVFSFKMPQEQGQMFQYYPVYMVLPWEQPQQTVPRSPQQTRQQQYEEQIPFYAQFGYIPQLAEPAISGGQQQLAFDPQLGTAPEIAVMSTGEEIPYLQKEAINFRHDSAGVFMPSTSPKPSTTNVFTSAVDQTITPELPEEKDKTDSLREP

[3] = target: tom1_human TOM1 (UniProt O60784)
[4] = target: ubql1_human UBQLN1 (UniProt Q9UMX0)
[5] = target: tfp11_human TFIP11 (UniProt Q9UBB9)
[6] = target: atrap_human AGTRAP (UniProt Q6RW13)
[7] = target: reep6_human REEP6 (UniProt Q96HR9)
[8] = target: S100A1 (UniProt P23297)
[9] = target: ptbp2_human PTBP2 (UniProt Q9UKA9)
[10] = target: snrpa_human SNRPA (UniProt P09012)
[11] = target: kr101_human KRTAP10-1 (UniProt P60331)
[12] = target: cep70_human CEP70 (UniProt Q8NHQ1)
[13] = target: stat3_human STAT3 (UniProt P40763)
[14] = target: efs_human EFS (UniProt O43281)
[15] = target: zc4h2_human ZC4H2 (UniProt Q9NQZ6)
[16] = target: cep70_human CEP70 (UniProt Q8NHQ1); remark: listed apart in the source
[17] = target: cc136_human CCDC136 (UniProt Q96JN2)
[18] = target: mtus2_human MTUS2 (UniProt Q5JR59)
[19] = target: tri41_human TRIM41 (UniProt Q8WV44)
[20] = target: tri41_human TRIM41 (UniProt Q8WV44); remark: listed apart in the source
[21] = target: cep70_human CEP70 (UniProt Q8NHQ1); remark: listed apart in the source
[22] = target: zn496_human ZNF496 (UniProt Q96IT1)
[23] = target: pgbd1_human PGBD1 (UniProt Q96JS3)
[24] = target: zn446_human ZNF446 (UniProt Q9NWS9)
[25] = target: zsc32_human ZSCAN32 (UniProt Q9NX65)
[26] = target: cdkl3_human CDKL3 (UniProt Q8IVW4)
[27] = target: lcp2_human LCP2 (UniProt Q13094)
[28] = target: pram_human PRAM1 (UniProt Q96QH2)
[29] = target: ptps_human PTS (UniProt Q03393)
[30] = target: tb22b_human TBC1D22B (UniProt Q9NU19)
[31] = target: frih_human FTH1 (UniProt P02794)
[32] = target: ap2m1_human AP2M1 (UniProt Q96CW1)
[33] = target: phs_human PCBD1 (UniProt P61457)
[34] = target: FBP1 (UniProt P09467)
[35] = target: scel_human SCEL (UniProt O95171)
[36] = target: T3, fosl2_human FOSL2 (UniProt P15408)
T3 sequence: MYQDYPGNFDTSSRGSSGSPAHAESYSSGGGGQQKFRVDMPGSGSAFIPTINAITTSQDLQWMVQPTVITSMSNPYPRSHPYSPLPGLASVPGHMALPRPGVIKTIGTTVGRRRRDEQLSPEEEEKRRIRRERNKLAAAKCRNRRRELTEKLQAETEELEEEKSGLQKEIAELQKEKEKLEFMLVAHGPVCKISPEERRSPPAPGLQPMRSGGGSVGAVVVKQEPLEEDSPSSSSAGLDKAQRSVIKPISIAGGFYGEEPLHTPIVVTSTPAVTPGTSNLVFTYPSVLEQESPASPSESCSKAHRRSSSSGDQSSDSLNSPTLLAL

[37] = target: gt253_human CERCAM (UniProt Q5T4B2)
[38] = target: vtnc_human VTN (UniProt P04004)
[39] = target: T4, mycd_human MYOCD (UniProt Q8IZQ8)
T4 sequence: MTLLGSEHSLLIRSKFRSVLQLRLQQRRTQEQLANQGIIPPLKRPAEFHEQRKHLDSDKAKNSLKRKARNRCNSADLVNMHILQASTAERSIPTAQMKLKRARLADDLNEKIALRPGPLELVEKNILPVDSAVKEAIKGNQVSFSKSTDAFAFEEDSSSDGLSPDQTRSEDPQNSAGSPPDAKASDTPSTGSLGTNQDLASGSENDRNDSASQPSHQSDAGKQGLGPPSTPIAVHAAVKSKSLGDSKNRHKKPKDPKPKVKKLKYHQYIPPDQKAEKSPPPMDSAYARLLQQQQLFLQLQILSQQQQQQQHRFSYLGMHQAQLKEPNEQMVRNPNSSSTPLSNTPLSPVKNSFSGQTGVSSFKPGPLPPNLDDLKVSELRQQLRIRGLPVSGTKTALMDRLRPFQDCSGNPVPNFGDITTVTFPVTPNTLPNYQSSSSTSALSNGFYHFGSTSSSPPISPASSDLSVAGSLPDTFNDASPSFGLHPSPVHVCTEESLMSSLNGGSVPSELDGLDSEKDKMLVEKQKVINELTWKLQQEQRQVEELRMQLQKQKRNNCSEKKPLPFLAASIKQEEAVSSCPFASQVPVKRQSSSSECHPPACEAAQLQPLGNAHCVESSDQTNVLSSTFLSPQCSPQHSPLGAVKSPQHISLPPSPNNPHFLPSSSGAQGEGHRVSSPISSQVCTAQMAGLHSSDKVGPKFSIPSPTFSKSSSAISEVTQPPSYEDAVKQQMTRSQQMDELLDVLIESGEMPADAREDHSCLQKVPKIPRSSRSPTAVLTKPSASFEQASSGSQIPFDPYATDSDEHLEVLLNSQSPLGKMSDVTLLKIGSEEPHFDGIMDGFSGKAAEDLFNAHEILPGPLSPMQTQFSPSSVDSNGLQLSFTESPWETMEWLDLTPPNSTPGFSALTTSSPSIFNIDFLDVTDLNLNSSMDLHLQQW

[40] = target: leg9b_human LGALS9B (UniProt Q3B8N2)
[41] = target: pdli7_human PDLIM7 (UniProt Q9NR12)
[42] = target: anr44_human ANKRD44 (UniProt Q8N8A2)
[43] = target: jkip2_human JAKMIP2 (UniProt Q96AA8)
[44] = target: nf2l2_human NFE2L2 (UniProt Q16236)
[45] = target: ccdb1_human CCNDBP1 (UniProt O95273)
[46] = target: naif1_human NAIF1 (UniProt Q69YI7)
[47] = target: T5, nqo2_human NQO2 (UniProt P16083)
T5 sequence: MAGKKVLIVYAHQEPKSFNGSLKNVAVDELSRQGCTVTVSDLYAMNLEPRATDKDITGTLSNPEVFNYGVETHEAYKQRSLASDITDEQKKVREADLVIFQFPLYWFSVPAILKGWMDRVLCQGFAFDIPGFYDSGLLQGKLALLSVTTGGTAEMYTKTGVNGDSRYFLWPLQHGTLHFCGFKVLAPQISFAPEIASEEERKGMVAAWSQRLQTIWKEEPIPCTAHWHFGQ

[48] = target: stox1_human STOX1 (UniProt Q6ZVD7)
[49] = target: rgs3_human RGS3 (UniProt P49796)

Troponin T, slow skeletal muscle (Homo sapiens), P13805 R39S, sequence (P13805 whole entry R39S): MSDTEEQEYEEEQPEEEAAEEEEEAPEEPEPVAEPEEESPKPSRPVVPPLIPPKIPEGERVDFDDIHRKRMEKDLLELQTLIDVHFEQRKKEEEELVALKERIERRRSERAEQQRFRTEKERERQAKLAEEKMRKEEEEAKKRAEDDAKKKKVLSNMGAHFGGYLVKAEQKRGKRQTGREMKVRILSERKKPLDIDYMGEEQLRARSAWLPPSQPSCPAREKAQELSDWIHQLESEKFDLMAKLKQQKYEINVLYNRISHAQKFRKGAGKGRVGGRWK
Zinc finger and SCAN domain-containing protein 22 (Homo sapiens), P10073 A321V, sequence (P10073 whole entry A321V, the tested form may be a part): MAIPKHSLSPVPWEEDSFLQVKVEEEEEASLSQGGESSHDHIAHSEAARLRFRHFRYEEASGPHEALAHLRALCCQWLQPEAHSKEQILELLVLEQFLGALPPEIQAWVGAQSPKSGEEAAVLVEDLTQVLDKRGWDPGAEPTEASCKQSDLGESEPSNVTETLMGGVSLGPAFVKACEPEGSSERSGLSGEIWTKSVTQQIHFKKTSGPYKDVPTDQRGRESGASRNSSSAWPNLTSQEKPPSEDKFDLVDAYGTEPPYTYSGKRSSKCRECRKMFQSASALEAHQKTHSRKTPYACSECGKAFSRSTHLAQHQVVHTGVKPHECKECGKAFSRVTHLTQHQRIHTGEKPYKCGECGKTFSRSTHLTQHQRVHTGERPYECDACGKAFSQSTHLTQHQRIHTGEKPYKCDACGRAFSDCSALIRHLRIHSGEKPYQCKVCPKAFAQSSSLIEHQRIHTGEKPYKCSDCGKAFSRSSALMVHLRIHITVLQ
cep70_human CEP70, sequence (Q8NHQ1 whole entry): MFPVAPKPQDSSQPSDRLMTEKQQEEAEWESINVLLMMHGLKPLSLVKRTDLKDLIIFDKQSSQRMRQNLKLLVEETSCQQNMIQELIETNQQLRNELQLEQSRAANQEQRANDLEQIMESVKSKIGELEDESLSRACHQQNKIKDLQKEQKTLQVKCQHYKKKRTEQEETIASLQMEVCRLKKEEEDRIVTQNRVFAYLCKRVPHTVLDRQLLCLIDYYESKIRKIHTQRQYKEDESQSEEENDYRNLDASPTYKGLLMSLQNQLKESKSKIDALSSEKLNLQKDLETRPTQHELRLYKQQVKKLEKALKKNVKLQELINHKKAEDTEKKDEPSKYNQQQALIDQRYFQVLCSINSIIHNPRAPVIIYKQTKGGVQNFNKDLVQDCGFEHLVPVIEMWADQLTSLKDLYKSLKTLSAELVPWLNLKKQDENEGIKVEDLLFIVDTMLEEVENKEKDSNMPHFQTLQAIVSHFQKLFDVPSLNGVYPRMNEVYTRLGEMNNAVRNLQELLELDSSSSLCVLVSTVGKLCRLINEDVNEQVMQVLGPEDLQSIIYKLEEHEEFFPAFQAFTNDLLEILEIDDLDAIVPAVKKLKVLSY
Polypyrimidine tract-binding protein 1 (Homo sapiens), P26599 A173T, sequence (P26599 whole entry A173T): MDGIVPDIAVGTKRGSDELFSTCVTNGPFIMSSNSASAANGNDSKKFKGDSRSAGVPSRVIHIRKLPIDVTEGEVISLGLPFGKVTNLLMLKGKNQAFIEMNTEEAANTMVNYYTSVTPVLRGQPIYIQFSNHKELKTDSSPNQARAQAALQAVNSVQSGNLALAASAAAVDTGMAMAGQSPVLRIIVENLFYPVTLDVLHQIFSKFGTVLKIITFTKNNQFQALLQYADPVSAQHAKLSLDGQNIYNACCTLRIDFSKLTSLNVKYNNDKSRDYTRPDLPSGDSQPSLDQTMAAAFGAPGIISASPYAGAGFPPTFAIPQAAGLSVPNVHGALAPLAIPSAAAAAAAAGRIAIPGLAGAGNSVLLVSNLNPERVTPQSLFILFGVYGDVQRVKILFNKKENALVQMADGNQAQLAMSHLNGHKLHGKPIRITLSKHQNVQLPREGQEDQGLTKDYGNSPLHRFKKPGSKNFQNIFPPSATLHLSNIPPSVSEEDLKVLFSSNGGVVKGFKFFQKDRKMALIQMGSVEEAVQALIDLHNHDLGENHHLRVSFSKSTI
Tyrosine-protein kinase Blk (Homo sapiens), P51451 A71T, sequence (P51451 whole entry A71T): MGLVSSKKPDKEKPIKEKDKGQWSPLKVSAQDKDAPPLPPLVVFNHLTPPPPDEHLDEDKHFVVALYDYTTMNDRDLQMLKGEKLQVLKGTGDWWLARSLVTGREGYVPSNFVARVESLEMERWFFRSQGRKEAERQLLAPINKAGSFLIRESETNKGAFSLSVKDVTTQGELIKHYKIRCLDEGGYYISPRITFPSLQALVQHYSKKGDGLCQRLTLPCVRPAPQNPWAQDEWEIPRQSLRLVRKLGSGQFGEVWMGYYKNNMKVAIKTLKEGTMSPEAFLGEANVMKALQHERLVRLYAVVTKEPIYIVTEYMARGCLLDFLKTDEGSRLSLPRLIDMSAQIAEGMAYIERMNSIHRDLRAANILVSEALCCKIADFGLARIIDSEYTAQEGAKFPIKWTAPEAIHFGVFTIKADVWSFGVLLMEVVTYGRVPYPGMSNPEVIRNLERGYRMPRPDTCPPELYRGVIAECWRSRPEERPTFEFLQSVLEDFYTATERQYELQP
cdkl3_human CDKL3, sequence (Q8IVW4 whole entry, looked up): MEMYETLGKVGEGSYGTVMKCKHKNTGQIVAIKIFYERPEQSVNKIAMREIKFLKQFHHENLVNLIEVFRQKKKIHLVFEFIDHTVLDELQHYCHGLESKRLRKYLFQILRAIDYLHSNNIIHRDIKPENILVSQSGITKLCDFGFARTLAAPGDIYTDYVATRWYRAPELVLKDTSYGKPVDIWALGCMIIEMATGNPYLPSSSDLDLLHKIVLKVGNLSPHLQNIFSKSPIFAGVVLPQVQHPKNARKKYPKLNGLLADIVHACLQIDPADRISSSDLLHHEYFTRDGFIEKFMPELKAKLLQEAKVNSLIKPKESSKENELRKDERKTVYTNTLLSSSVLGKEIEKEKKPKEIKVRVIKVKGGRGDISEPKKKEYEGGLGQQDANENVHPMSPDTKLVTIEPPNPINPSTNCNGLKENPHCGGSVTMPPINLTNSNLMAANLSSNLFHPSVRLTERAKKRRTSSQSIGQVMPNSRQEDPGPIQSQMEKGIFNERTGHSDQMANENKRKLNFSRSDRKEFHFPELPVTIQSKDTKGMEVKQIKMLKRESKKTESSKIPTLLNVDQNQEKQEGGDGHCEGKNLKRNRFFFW
leg9b_human LGALS9B, sequence (Q3B8N2 whole entry): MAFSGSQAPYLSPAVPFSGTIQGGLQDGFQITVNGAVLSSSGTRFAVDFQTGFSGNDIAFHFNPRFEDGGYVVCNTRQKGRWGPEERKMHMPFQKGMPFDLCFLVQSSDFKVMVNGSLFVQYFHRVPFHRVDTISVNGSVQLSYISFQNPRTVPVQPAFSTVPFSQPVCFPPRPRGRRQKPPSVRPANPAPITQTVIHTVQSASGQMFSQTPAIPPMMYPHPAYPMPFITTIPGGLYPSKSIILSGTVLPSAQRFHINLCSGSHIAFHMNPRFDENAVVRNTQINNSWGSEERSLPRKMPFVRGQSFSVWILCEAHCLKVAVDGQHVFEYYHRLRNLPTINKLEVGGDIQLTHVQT
ptps_human PTS, sequence (Q03393 whole entry): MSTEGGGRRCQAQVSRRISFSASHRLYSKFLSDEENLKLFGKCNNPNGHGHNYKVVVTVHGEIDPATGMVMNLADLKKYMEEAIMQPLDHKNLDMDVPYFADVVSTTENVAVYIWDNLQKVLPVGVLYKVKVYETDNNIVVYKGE
naif1_human NAIF1, sequence (Q69YI7 whole entry): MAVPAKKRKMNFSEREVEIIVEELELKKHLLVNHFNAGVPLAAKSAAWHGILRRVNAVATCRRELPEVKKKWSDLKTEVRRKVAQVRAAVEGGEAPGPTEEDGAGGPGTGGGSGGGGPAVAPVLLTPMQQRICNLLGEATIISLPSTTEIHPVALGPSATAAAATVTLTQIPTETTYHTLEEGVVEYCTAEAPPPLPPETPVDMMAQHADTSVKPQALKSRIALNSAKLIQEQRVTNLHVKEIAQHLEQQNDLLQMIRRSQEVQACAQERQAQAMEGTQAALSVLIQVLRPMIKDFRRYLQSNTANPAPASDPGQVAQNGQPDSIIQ
ap2m1_human AP2M1, sequence (Q96CW1 whole entry): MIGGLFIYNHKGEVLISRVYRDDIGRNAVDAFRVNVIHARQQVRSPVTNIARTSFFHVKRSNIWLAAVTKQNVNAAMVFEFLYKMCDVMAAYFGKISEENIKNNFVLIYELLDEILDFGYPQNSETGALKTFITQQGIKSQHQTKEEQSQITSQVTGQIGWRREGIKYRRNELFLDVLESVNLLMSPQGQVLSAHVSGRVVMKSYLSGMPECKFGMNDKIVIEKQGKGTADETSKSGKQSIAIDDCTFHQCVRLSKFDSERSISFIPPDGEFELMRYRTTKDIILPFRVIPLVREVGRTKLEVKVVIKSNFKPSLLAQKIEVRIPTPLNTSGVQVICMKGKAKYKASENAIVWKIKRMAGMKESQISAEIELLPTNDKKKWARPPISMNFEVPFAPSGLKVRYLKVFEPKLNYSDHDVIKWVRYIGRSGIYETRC
Thioredoxin domain-containing protein 12 (Homo sapiens), O95881 T80M, sequence (O95881 whole entry T80M, the tested form may be a part): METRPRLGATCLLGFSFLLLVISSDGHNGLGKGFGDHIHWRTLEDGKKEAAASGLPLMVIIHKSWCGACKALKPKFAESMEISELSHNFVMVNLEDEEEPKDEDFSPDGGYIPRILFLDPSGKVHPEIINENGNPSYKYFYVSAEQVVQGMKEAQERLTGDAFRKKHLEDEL
phs_human PCBD1, sequence (P61457 whole entry): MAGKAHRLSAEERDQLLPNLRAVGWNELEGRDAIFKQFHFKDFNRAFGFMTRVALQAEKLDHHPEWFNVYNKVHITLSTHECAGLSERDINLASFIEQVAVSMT
FBP1, sequence (P09467 whole entry): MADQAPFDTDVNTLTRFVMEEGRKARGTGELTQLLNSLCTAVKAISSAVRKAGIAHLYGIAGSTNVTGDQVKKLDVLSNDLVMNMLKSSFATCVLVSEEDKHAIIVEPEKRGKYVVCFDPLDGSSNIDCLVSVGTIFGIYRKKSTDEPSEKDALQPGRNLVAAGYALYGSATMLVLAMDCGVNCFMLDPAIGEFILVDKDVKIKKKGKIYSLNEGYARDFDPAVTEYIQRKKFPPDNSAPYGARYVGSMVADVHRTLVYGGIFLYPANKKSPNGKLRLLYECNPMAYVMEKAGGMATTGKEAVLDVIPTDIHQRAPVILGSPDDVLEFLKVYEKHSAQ

Substance: Toll-interacting protein (Homo sapiens) (from UniProt Q9H0E2) I264V
effect of a mutation on the interaction [3]: with no effect

Substance: Thioredoxin domain-containing protein 12 (Homo sapiens), O95881 T80M
effect of a mutation on the interaction [4]: with no effect

Substance: Atypical kinase COQ8A, mitochondrial (Homo sapiens), Q8NI60 D100Y
effect of a mutation on the interaction [5]: with no effect
effect of a mutation on the interaction [6]: with no effect
effect of a mutation on the interaction [7]: with no effect

Substance: Protein S100-A2 (Homo sapiens), P29034 S62N
effect of a mutation on the interaction [8]: with no effect

Substance: Polypyrimidine tract-binding protein 1 (Homo sapiens), P26599 A173T
effect of a mutation on the interaction [9]: with no effect
effect of a mutation on the interaction [10]: with no effect

Substance: Zinc finger protein 227 (Homo sapiens), Q86WZ6 P249S
effect of a mutation on the interaction [12]: with no effect

Substance: Tyrosine-protein kinase Blk (Homo sapiens), P51451 A71T
effect of a mutation on the interaction [13]: with no effect
effect of a mutation on the interaction [14]: with no effect

Substance: Zinc finger protein 490 (Homo sapiens), Q9ULM2 E419K
effect of a mutation on the interaction [15]: with no effect
effect of a mutation on the interaction [16]: with no effect
effect of a mutation on the interaction [17]: with no effect
effect of a mutation on the interaction [18]: with no effect
effect of a mutation on the interaction [19]: with no effect

Substance: Zinc finger and SCAN domain-containing protein 22 (Homo sapiens), P10073 A321V
effect of a mutation on the interaction [22]: with no effect
effect of a mutation on the interaction [23]: with no effect
effect of a mutation on the interaction [24]: with no effect
effect of a mutation on the interaction [25]: with no effect

Substance: RNA-binding protein FXR2 (Homo sapiens), P51116 K651E
effect of a mutation on the interaction [26]: with no effect
effect of a mutation on the interaction [27]: with no effect
effect of a mutation on the interaction [28]: with no effect
effect of a mutation on the interaction [29]: with no effect
effect of a mutation on the interaction [30]: with no effect
effect of a mutation on the interaction [31]: with no effect
effect of a mutation on the interaction [32]: with no effect
effect of a mutation on the interaction [33]: with no effect
effect of a mutation on the interaction [34]: disrupting interaction strength
effect of a mutation on the interaction [35]: with no effect

Substance: Transcription factor SOX-14 (Homo sapiens), O95416 A107G
effect of a mutation on the interaction [46]: with no effect

Substance: Golgi reassembly-stacking protein 2 (Homo sapiens) (from UniProt Q9H8Y8) S432F
effect of a mutation on the interaction [47]: with no effect
effect of a mutation on the interaction [48]: with no effect
effect of a mutation on the interaction [49]: with no effect

Next, values leading:

effect of a mutation on the interaction [1]: with no effect
effect of a mutation on the interaction [2]: with no effect
Substance: Toll-interacting protein (Homo sapiens) (from UniProt Q9H0E2) A222S

effect of a mutation on the interaction [11]: with no effect
Substance: Zinc finger protein 264 (Homo sapiens), O43296 G166D

effect of a mutation on the interaction [20]: with no effect
effect of a mutation on the interaction [21]: with no effect
Substance: Zinc finger protein 329 (Homo sapiens), Q86UD4 N182D

effect of a mutation on the interaction [36]: with no effect
effect of a mutation on the interaction [37]: with no effect
effect of a mutation on the interaction [38]: with no effect
effect of a mutation on the interaction [39]: with no effect
Substance: Golgi-associated PDZ and coiled-coil motif-containing protein (Homo sapiens) (from UniProt Q9HD26) L123V

effect of a mutation on the interaction [40]: with no effect
effect of a mutation on the interaction [41]: with no effect
effect of a mutation on the interaction [42]: with no effect
Substance: NEDD4-like E3 ubiquitin-protein ligase WWP2 (Homo sapiens), O00308 R315C

effect of a mutation on the interaction [43]: with no effect
effect of a mutation on the interaction [44]: with no effect
effect of a mutation on the interaction [45]: with no effect
Substance: Troponin T, slow skeletal muscle (Homo sapiens), P13805 R39S
